B1: HDV Ribozyme (parent)
chain: GGCCGGCAUGGUCCCAGCCUCCUCGCUGGCGCCGGCUGGGCAACAUUCCGAGGGGACCGUCCCCUCGGUAAUGGCGAAUGGGACCCA

Variants of: B1
Assay: self-cleavage, relative activity (ratio to wild type); higher = more cleavage; co-transcriptional

Row | Variant | self-cleavage
1 | GGCCGGCAUGGUCCCAGCCUCCUCGCUGGCGCCGGCUGGGCAGCAUUCUGAGGGGACCGUCCCCUCGGUAAUGGCGAAUGGGACCCA [A43G C49U] | 0.469
2 | GGCCGGCAUGGUCCCAGCCUCCUCGCUGGCGCCGGCUGGGCAGCAUUCCGAAGGGACCGUCCCCUCGGUAAUGGCGAAUGGGACCCA [A43G G52A] | 0.577
3 | GGCCGGCAUGGUCCCAGCCUCCUCGCUGGCGCCGGCUGGGCAGCAUUCCGACGGGACCGUCCCCUCGGUAAUGGCGAAUGGGACCCA [A43G G52C] | 0.796
4 | GGCCGGCAUGGUCCCAGCCUCCUCGCUGGCGCCGGCUGGGCAGCAUUCCGAGGGGACCGUCCCCUCGGUAAUGGCGAAUGGGACGCA [A43G C85G] | 0.791
5 | GGCCGGCAUGGUCCCAGCCUCCUCGCUGGCGCCGGCUGGGCAGCAUUCCGAGGGGACCGUCCCCUCGGAAAUGGCGAAUGGGACCCA [A43G U69A] | 0.623
6 | GGCCGGCAUGGUCCCAGCCUCCUCGCUGGCGCCGGCUGGGCAGCAUUCCGAGGGGACCGUCCCCUCGGGAAUGGCGAAUGGGACCCA [A43G U69G] | 0.867
7 | GGCCGGCAUGGUCCCAGCCUCCUCGCUGGCGCCGGCUGGGCAGCAUCCCGAGGGGACCGUCCCCUCGGUAAUGGCGAAUGGGACCCA [A43G U47C] | 0.748
8 | GGCCGGCAUGGUCCCAGCCUCCUCGCUGGCGCCGGCUGGGCAUCAUUCCGAGGGGACCGUCACCUCGGUAAUGGCGAAUGGGACCCA [A43U C62A] | 0.499
9 | GGCCGGCAUGGUCCCAGCCUCCUCGCUGGCGCCGGCUGGGCAGCAUUCCGAGGGGACCGUCCCCUCGGUAAUGGCAAAUGGGACCCA [A43G G76A] | 0.391
10 | GGCCGGCAUGGUCCCAGCCUCCUCGCUGGCGCCGGCUGGGCAGCAUUCCGAGGGGACCGUCCCCUCGGUAAUGGCGAAUGGUACCCA [A43G G82U] | 0.189
11 | GGCCGGCAUGGUCCCAGCCUCCUCGCUGGCGCCGGCUGGGCAGCAUUCCGAGGGGACCGUCCCCUCGGUAAUGGCGAAUGGAACCCA [A43G G82A] | 0.138
12 | GGCCGGCAUGGUCCCAGCCUCCUCGCUGGCGCCGGCUGGGCAGCAGUCCGAGGGGACCGUCCCCUCGGUAAUGGCGAAUGGGACCCA [A43G U46G] | 0.499
13 | GGCCGGCAUGGUCCCAGCCUCCUCGCUGGCGCCGGCUGGGCAGCACUCCGAGGGGACCGUCCCCUCGGUAAUGGCGAAUGGGACCCA [A43G U46C] | 0.443
14 | GGCCGGCAUGGUCCCAGCCUCCUCGCUGGCGCCGGCUGGGCAUCAUUCCGAGGGGACCGUCCCCUCGGUAAUGGCGAAUGGGCCCCA [A43U A83C] | 0.0923
15 | GGCCGGCAUGGUCCCAGCCUCCUCGCUGGCGCCGGCUGGGCAUCAUUCCGAGGGGACCGUCCCCUCGGUAAUGGCGAAUGGGUCCCA [A43U A83U] | 0.125
16 | GGCCGGCAUGGUCCCAGCCUCCUCGCUGGCGCCGGCUGGGCAUCAUUCCGAGGGGACCGUCCCCUCGGUAAUGGGGAAUGGGACCCA [A43U C75G] | 0.0639
17 | GGCCGGCAUGGUCCCAGCCUCCUCGCUGGCGCCGGCUGGGCAUCAUUCCGAGGGGACCGUCCCCUCGGUAAUGGCGAAUGGGACUCA [A43U C85U] | 0.658
18 | GGCCGGCAUGGUCCCAGCCUCCUCGCUGGCGCCGGCUGGGCAUCAUUCCGAGGGGACCGUCCCCUCGGUAAUGGCGAAUGGGACACA [A43U C85A] | 0.499
19 | GGCCGGCAUGGUCCCAGCCUCCUCGCUGGCGCCGGCUGGGCAUCAUUCCGAGGGGACCGUCCCCUCGGUAAUGGCGAAUGGGACCGA [A43U C86G] | 0.325
20 | GGCCGGCAUGGUCCCAGCCUCCUCGCUGGCGCCGGCUGGGCAUCAUUCCGAGGGGACCGUCCCCUCGGUAAUGGCGAAUGGGACCUA [A43U C86U] | 0.563
21 | GGCCGGCAUGGUCCCAGCCUCCUCGCUGGCGCCGGCUGGGCAUCAUUACGAGGGGACCGUCCCCUCGGUAAUGGCGAAUGGGACCCA [A43U C48A] | 0.424
22 | GGCCGGCAUGGUCCCAGCCUCCUCGCUGGCGCCGGCUGGGCAUCAUUCCGAGGGGACCGUCCCCUCGGUAAUGGCGAAUGGGACCCU [A43U A87U] | 0.425

Row | Variant | self-cleavage
23 | GGCCGGCAUGGUCCCAGCCUCCUCGCUGGCGCCGGCUGGGCAUCAUUCCGAGGGGACCGUCCCCUCGGUAAUGGCGAAUGGGAUCCA [A43U C84U] | 0.151
24 | GGCCGGCAUGGUCCCAGCCUCCUCGCUGGCGCCGGCUGGGCAUCAUUCCGAGGGGACUGUCCCCUCGGUAAUGGCGAAUGGGACCCA [A43U C58U] | 0.462
25 | GGCCGGCAUGGUCCCAGCCUCCUCGCUGGCGCCGGCUGGGCAGCAUUCCGAGGGGACCGUCCCCUCGGUAAUGGCGAGUGGGACCCA [A43G A78G] | 0.119
26 | GGCCGGCAUGGUCCCAGCCUCCUCGCUGGCGCCGGCUGGGCAGCAUUCCGAGGGGACCGUCCCCUCGGUAAAGGCGAAUGGGACCCA [A43G U72A] | 0.453
27 | GGCCGGCAUGGUCCCAGCCUCCUCGCUGGCGCCGGCUGGGCAGCAUUCCGAGGGGACCGUCCCCUCGGUAAUGGCGAAUGGGUCCCA [A43G A83U] | 0.266
28 | GGCCGGCAUGGUCCCAGCCUCCUCGCUGGCGCCGGCUGGGCAGCAUUCCGAGGGGACUGUCCCCUCGGUAAUGGCGAAUGGGACCCA [A43G C58U] | 0.415
29 | GGCCGGCAUGGUCCCAGCCUCCUCGCUGGCGCCGGCUGGGCAGCAUUCCGAGGGGACCGUCCCCUCGGUAUUGGCGAAUGGGACCCA [A43G A71U] | 0.95
30 | GGCCGGCAUGGUCCCAGCCUCCUCGCUGGCGCCGGCUGGGCAUCAUUCCGAGGGGACCGUCCCCUCGGUAAUGGCGCAUGGGACCCA [A43U A77C] | 0.0519
31 | GGCCGGCAUGGUCCCAGCCUCCUCGCUGGCGCCGGCUGGGCAUCAUUCCGAGGGGACCGUCCCCUAGGUAAUGGCGAAUGGGACCCA [A43U C66A] | 0.415
32 | GGCCGGCAUGGUCCCAGCCUCCUCGCUGGCGCCGGCUGGGCAUCCUUCCGAGGGGACCGUCCCCUCGGUAAUGGCGAAUGGGACCCA [A43U A45C] | 0.877
33 | GGCCGGCAUGGUCCCAGCCUCCUCGCUGGCGCCGGCUGGGCAGCAUUCCCAGGGGACCGUCCCCUCGGUAAUGGCGAAUGGGACCCA [A43G G50C] | 0.739
34 | GGCCGGCAUGGUCCCAGCCUCCUCGCUGGCGCCGGCUGGGCAGCAUUCCAAGGGGACCGUCCCCUCGGUAAUGGCGAAUGGGACCCA [A43G G50A] | 0.502
35 | GGCCGGCAUGGUCCCAGCCUCCUCGCUGGCGCCGGCUGGGCAGCAUUCCGAGGGGACCGUCCCCUCGGUAAUGGCGAAUGGGACCCG [A43G A87G] | 0.634
36 | GGCCGGCAUGGUCCCAGCCUCCUCGCUGGCGCCGGCUGGGCAGCAUUCCGAGGGGACCGUCCCCUCGGUAAUGGCGAAUGGGACCCC [A43G A87C] | 0.688
37 | GGCCGGCAUGGUCCCAGCCUCCUCGCUGGCGCCGGCUGGGCAGCAUUCCGAGGGGACCGUCCCCUCGGUAAUGGCGAAAGGGACCCA [A43G U79A] | 0.192
38 | GGCCGGCAUGGUCCCAGCCUCCUCGCUGGCGCCGGCUGGGCAGCAUUCCGAGGGGACCGUCCCCUCGGUAAUUGCGAAUGGGACCCA [A43G G73U] | 0.0755
39 | GGCCGGCAUGGUCCCAGCCUCCUCGCUGGCGCCGGCUGGGCAGCAUUCCGAGGGGACCGUCCCCUCGGUAAUCGCGAAUGGGACCCA [A43G G73C] | 0.256
40 | GGCCGGCAUGGUCCCAGCCUCCUCGCUGGCGCCGGCUGGGCAUCAUUCCGAGGGGACCGUCCGCUCGGUAAUGGCGAAUGGGACCCA [A43U C63G] | 0.394
41 | GGCCGGCAUGGUCCCAGCCUCCUCGCUGGCGCCGGCUGGGCAGCAUUCCGAGGGGAUCGUCCCCUCGGUAAUGGCGAAUGGGACCCA [A43G C57U] | 0.974
42 | GGCCGGCAUGGUCCCAGCCUCCUCGCUGGCGCCGGCUGGGCAGCAUUCCGAGGGGAACGUCCCCUCGGUAAUGGCGAAUGGGACCCA [A43G C57A] | 0.628
43 | GGCCGGCAUGGUCCCAGCCUCCUCGCUGGCGCCGGCUGGGCAGCAUUCCGAGGGGAGCGUCCCCUCGGUAAUGGCGAAUGGGACCCA [A43G C57G] | 0.356
44 | GGCCGGCAUGGUCCCAGCCUCCUCGCUGGCGCCGGCUGGGCAGCAUUCCGAGGGGACCGUCCCCUCGGUAAUGGCGAAUGUGACCCA [A43G G81U] | 0.138

Row | Variant | self-cleavage
45 | GGCCGGCAUGGUCCCAGCCUCCUCGCUGGCGCCGGCUGGGCAGCAUUUCGAGGGGACCGUCCCCUCGGUAAUGGCGAAUGGGACCCA [A43G C48U] | 0.587
46 | GGCCGGCAUGGUCCCAGCCUCCUCGCUGGCGCCGGCUGGGCAGCAUUGCGAGGGGACCGUCCCCUCGGUAAUGGCGAAUGGGACCCA [A43G C48G] | 0.719
47 | GGCCGGCAUGGUCCCAGCCUCCUCGCUGGCGCCGGCUGGGCAUCAUUCCGAGGGGAGCGUCCCCUCGGUAAUGGCGAAUGGGACCCA [A43U C57G] | 0.674
48 | GGCCGGCAUGGUCCCAGCCUCCUCGCUGGCGCCGGCUGGGCAUCAUUCCGAGGGGACCGUACCCUCGGUAAUGGCGAAUGGGACCCA [A43U C61A] | 0.532
49 | GGCCGGCAUGGUCCCAGCCUCCUCGCUGGCGCCGGCUGGGCAGCAUUCCGAGGGGACCGUCCCCUCGGUAAUGGCGAAUGGGACCGA [A43G C86G] | 0.727
50 | GGCCGGCAUGGUCCCAGCCUCCUCGCUGGCGCCGGCUGGGCAGCAUUCCGAGGGGACCGUCCCCUCGGUAAUGGCGAAUGGGACCAA [A43G C86A] | 0.712
51 | GGCCGGCAUGGUCCCAGCCUCCUCGCUGGCGCCGGCUGGGCAGCAUUCCGAGGGGACCGUCCCCGCGGUAAUGGCGAAUGGGACCCA [A43G U65G] | 0.575
52 | GGCCGGCAUGGUCCCAGCCUCCUCGCUGGCGCCGGCUGGGCAGCAUUCCGAGGGGACCGUCCCCUCGGUAAUGGAGAAUGGGACCCA [A43G C75A] | 0.172
53 | GGCCGGCAUGGUCCCAGCCUCCUCGCUGGCGCCGGCUGGGCAGCAUUCCGAGGGGACCGUCCCCUCGGUAAUGGGGAAUGGGACCCA [A43G C75G] | 0.161
54 | GGCCGGCAUGGUCCCAGCCUCCUCGCUGGCGCCGGCUGGGCAGCAUUCCGAGGGGACCGUCCCCUCGGUAAUGGUGAAUGGGACCCA [A43G C75U] | 0.0573
55 | GGCCGGCAUGGUCCCAGCCUCCUCGCUGGCGCCGGCUGGGCAGCAUUCCGAGGGGACCGUCCCCUCGGUAAUGACGAAUGGGACCCA [A43G G74A] | 0.724
56 | GGCCGGCAUGGUCCCAGCCUCCUCGCUGGCGCCGGCUGGGCAUCAUUCCGAGGGGACCCUCCCCUCGGUAAUGGCGAAUGGGACCCA [A43U G59C] | 0.502
57 | GGCCGGCAUGGUCCCAGCCUCCUCGCUGGCGCCGGCUGGGCAUCAUUCCUAGGGGACCGUCCCCUCGGUAAUGGCGAAUGGGACCCA [A43U G50U] | 0.458
58 | GGCCGGCAUGGUCCCAGCCUCCUCGCUGGCGCCGGCUGGGCAGCAUUCCGAGGGGACCGUCCCCUGGGUAAUGGCGAAUGGGACCCA [A43G C66G] | 0.404
59 | GGCCGGCAUGGUCCCAGCCUCCUCGCUGGCGCCGGCUGGGCAGCAUUCCGAGGGGACCGUCCCCUUGGUAAUGGCGAAUGGGACCCA [A43G C66U] | 0.672
60 | GGCCGGCAUGGUCCCAGCCUCCUCGCUGGCGCCGGCUGGGCAUCAUUCCGAGGGUACCGUCCCCUCGGUAAUGGCGAAUGGGACCCA [A43U G55U] | 0.619
61 | GGCCGGCAUGGUCCCAGCCUCCUCGCUGGCGCCGGCUGGGCAUCAUUCCGAGGGGACCGUCCCCUCGGUCAUGGCGAAUGGGACCCA [A43U A70C] | 0.554
62 | GGCCGGCAUGGUCCCAGCCUCCUCGCUGGCGCCGGCUGGGCAUCAUUCCGAGGGGACCGUCCCCUCGGUGAUGGCGAAUGGGACCCA [A43U A70G] | 1.05
63 | GGCCGGCAUGGUCCCAGCCUCCUCGCUGGCGCCGGCUGGGCAUCAUUCCGAGGGGACCGUCCCCUCGGUUAUGGCGAAUGGGACCCA [A43U A70U] | 0.59
64 | GGCCGGCAUGGUCCCAGCCUCCUCGCUGGCGCCGGCUGGGCAUCAUUCCGAGGGGACCGUCCCCUCGUUAAUGGCGAAUGGGACCCA [A43U G68U] | 0.299
